Laboratory results as given in the DeepSol protein solubility set.

assay: soluble on expression in E. coli; label from the status in PepcDB or PDB records

| Sequence | soluble on expression in E. coli |
| --- | --- |
| MVGYSSKLIFVSMITRHGDRAPFANIENANYSWGTELSELTPIGMNQEYNLGLQLRKRYIDKFGLLPEHYVDQSIYVLSSHTNRTVVSAQSLLMGLYPAGTGPLIGDGDPAIKDRFQPIPIMTLSADSRLIQFPYEQYLAVLKKYVYNSPEWQNKTKEAAPNFAKWQQILGNRISGLNDVITVGDVLIVAQAHGKPLPKGLSQEDADQIIALTDWGLAQQFKSQKVSYIMGGKLTNRMIEDLNNAVNGKSKYKMTYYSGHALTLLEVMGTLGVPLDTAPGYASNLEMELYKDGDIYTVKLRYNGKYVKLPIMDKNNSCSLDALNKYMQSINEKFQKHHHHHH | soluble |
| MVHYKLTYFLSRGLGDVSRQLFHLADVDFEDERLEKPHFLEKKETYPFKQVPVLSVDGFQIPQSMAIARYLAKKFGFAGKTAEESAMVDAFVDQFKDFYSEIRDYYYTMLGLGLTDLDGDEQKDKVLIPARDKFLPLLTRYLEKSKSGFLVDGGLTFADLIILDNMTSLLNWWPEYANDYPVILAWRDKVMNYPRLKEYIEKRPVTMY | not soluble |
| MVIRYDKAFIKDFKETDEGYLTITACPITRPGVFPYRRTDGGLSMEAKLPDELFSKATVLSANAKPMTDDHPTEPVTAANYNKYSKGMTHNDAHVLDNKLLVSFTITDAETIKKINDGKRELSIGFQADVSKETGVYNGMQYDSVQRNMQINHIAIVDEGRAGPEVAIRGDSVAFMIDTKDKQTGGNGMSKLIIDSKEFEVDSIVKAKFESLEAKLDAAEQRKANVEKLEGERDALKAQIDKLNKEIDEAKKKEVTADALDKRVQDRVDLINKAQKFLGDSVDFTGKSDREIKESVIAKTSPDFKGDGKSDDYIAAYFDSAVANVEKKGFTNPAAFNDAKDKDKEAAEDIEKQKNNRLNMNKKEDK | not soluble |
| MVKAEFGLYSATGGRVLVWLEQIHVQPLELLSTDERIRRQSIGVTILWNNILVMIQCDGNILPQKHQGFYRFHCEFQQRSLHTAEHLMSFMDEGS | not soluble |
| MVKLRIGYPEDPDYQERLEEFEARIARGEKIEPGDWMPAEYRRQLIRMISQHAHSEWVGMLPEGAWITRAPSLRRKLILLAKVQDEAGHGQYLYHAAETLGITREEMVEALLSGKAKYSNIFNYPTLTWADVAIIGWLVDGMAIKNQTMLAQCSYGPYSRAMVRICAEETFHHKQGKEAVLLYAKGSPKQRRMVQDALNRWWWPTLMMAGPHDTDSPHTPLLLRWGIKTKTNDQIRQEFLNEHVPELLDAGLSIPDPDLRYDEKTGNWIHGPIPWDEFWKVIGGEGPMNRHRLQGRRRAHQEGRWVREAMEAYAKRRLAQAAD | soluble |
| MVKTMKCKFCDKKSYIKLKSPKMYLCKEHFVEYFENKVKKSIDKYKMLSKDEKILVAVSGGKDGHAAAWVLKKLGYNIELFHINLGIEGFSEESLKAVKELAEKLEVPLHVVNLKDITGKTMEDIRGKKCSICGTTKRYLMNKFGYENGFDVIVTGHNLDDEVSFILNNLFNWNIRYLAKHEPVLPAHDKFLKKVKIFFEIEEELILKYAEAEEIPYTTVECKYAERAITLKHRAYLNELEKERPGIKYQFLSGYMKNRHLFKVEEEDFQFRECEVCGMTSAGKICSFCRVWKLYKKKKENRN | soluble |
| MVLADGELTVLGRIRSASNATFLCESTLGLRSLHCVYKPVSGERPLWDFPDGTLAGRELSAYLVSTQLGWNLVPHTIIRDGPAGIGMLQLWVQQPGDAVDSDPLPGPDLVDLFPAHRPRPGYLPVLRAYDYAGDEVVLMHADDIRLRRMAVFDVLINNADRKGGHILCGIDGQVYGVDHGLCLHVENKLRTVLWGWAGKPIDDQILQAVAGLADALGGPLAEALAGRIAAAEIGALRRRAQSLLDQPVMPGPNGHRPIPWPAFLEHHHHHH | not soluble |
| MVLRDKMILLDENTKAIVQGITGRQGSFHTKKMLECGTKIVGGVTPGKGGQNVHGVPVFDTVKEAVKETDANASVIFVPAPFAKDAVFEAIDAGIELIVVITEHIPVHDTMEFVNYAEDVGVKIIGPNTPGIASPKVGKLGIIPMEVLKEGSVGMVSRSGTLTYEIAHQIKKAGFGVSTCVGIGGDPIVGLRYKEVLDLFEKDDETEAIVMIGEIGGGAEEEAAKFIEKMKKPVIGYIAGQSAPEGKRMGHAGAIVEKGKGTAESKMKALEEAGAYVAKNISDIPKLLAGILGK | soluble |
| MVMNRSSPHGGGVAAGDGGGRPLRPGHFPLRPLRGHLPPGGRIFALALAVALPVQAETLASRAPETVAITLYRDGDGPFQAMSPWVRQQARDKGLVLVTETRTVDLPAGRHTLRFDGVAEGLIPQSAAVEGLPGKAVERNYDYALLSPGTLVERSLGQPIKVVRTNRKTGRQQTVDATLIQGPYGLMVRTAEGVEALGCSGGAERLVLGAVPEGLTDKPSLSTIVEVPAPTRAKLTVSYLALGVNWQADYVARIHPDGQRLDLTGWLTLVNSGGSQFADAKTQAVAGKLSRKPVRVDKGEARSIHRACWPMDTTHYGQEPPPPPAPPPPLPIPMMSAAPMARAGAEEIAVTGARAKLAEQSNLGDYKLYTLPEPVTLNARQTKQVAFLDQKDVAFQRLYAVEMDSYDDYDNADWPLIIPDVVLRLENKTANGLGKPLPSGALSAIETAGGRPTFAGEQAVRDVAVGEPLDLVIGRAMDVHARPRLVEERTLSKGRVRRTYELDLANAKTVPITVEIRHDPTAPYFKLVSEPQKHDIRQGQVAWRVTLPAGERRSFRYAVAFGR | not soluble |
| MVNKDVKQTTAFGAPVWDDNNVITAGPRGPVLLQSTWFLEKLAAFDRERIPERVVHAKGSGAYGTFTVTKDITKYTKAKIFSKVGKKTECFFRFSTVAGERGSADAVRDPRGFAMKYYTEEGNWDLVGNNTPVFFIRDAIKFPDFIHTQKRDPQTNLPNHDMVWDFWSNVPESLYQVTWVMSDRGIPKSFRHMDGFGSHTFSLINAKGERFWVKFHFHTMQGVKHLTNEEAAEIRKHDPDSNQRDLFDAIARGDYPKWKLSIQVMPEEDAKKYRFHPFDVTKIWYTQDYPLMEVGIVELNKNPENYFAEVEQAAFTPANVVPGIGYSPDRMLQGRLFSYGDTHRYRLGVNYPQIPVNKPRCPFHSSSRDGYMQNGYYGSLQNYTPSSLPGYKEDKSARDPKFNLAHIEKEFEVWNWDYRADDSDYYTQPGDYYRSLPADEKERLHDTIGESLAHVTHKEIVDKQLEHFKKADPKYAEGVKKALEKHQKMMKDMHGKDMHHTKKKK | soluble |
| MVNKKRQVRFEFFQVNGKAQEGEKIVKGLFDLYPLADRINSISNYTDRDVILFGEKVRMDRFFEVSSSPELYAMHFTRLRNDKPAYVELNNEVLKEIPLNPGEYIAEDISCLYDRELSVLMVQRNIHSLSPSGIEDYFTEMSDDLVEIELLPVVNKEIISKALANEKFRKLELRAGSMNTTSDRSGLRKVLGPFMELFEKFEGTNFVIEISSGRSKKDLSEDQMKEVITAIEQDKSLFSSAIVSAKKSKEVPVEKYDLINGKLYVYRSFDLPDGAFLKSDSVIDNIKNYYFHPNEGGYRKQIIDAVK | not soluble |
| MVNLDAEIYEHLNKQIKINELRYLSSGDDSDTFLCNEQYVVKVPKRDSVRISQKREFELYRFLENCKLSYQIPAVVYQSDRFNIMKYIKGERITYEQYHKLSEKEKDALAYDEATFLKELHSIEIDCSVSLFSDALVNKKDKFLQDKKLLISILEKEQLLTDEMLEHIETIYENILNNAVLFKYTPCLVHNDFSANNMIFRNNRLFGVIDFGDFNVGDPDNDFLCLLDCSTDDFGKEFGRKVLKYYQHKAPEVAERKAELNDVYWSIDQIIYGYERKDREMLIKGVSELLQTQAEMFIF | soluble |
| MVNPFIKEAKEKMKRTLEKIEDELRKMRTGKPSPAILEEIKVDYYGVPTPVNQLATISISEERTLVIKPWDKSVLSLIEKAINASDLGLNPINDGNVIRLVFPSPTTEQREKWVKKAKEIVEEGKIAIRNIRREILKKIKEDQKEGLIPEDDAKRLENEIQKLTDEFIEKLDEVFEIKKEEIMEF | soluble |
| MVNQEKTLDVGFTHADFAALLDRYDYHFNPGDIVAGTVFSIEPKGALIDIGAKTAAYIPIQEMSINRIESPEEVLQPNETREFFILADENEEGQLTLSIRRIEYMRAWERVRQLQAEDATVRSQVFATNRGGALVRIEGLRGFIPGSHISTRVNKEELVGEELPLKFLEVDEERNRLVLSHRRALVERKMNKLEVGEVVVGTVRGIKPYGAFIDIGGVSGLLHISEISHDHIDTPHSVFNVNDQVKVMIIDLDAERGRISLSTKQLEPEPGDMVKNPQLVYEKAEEMAERYRQQLLQQQQQAAGETPEEGMEDIPEATEDDSPAPILQEALEHHHHHH | not soluble |
| MVNVLSNLSNLSNILGKSNKGVGIELAPERMNIVHLCKQRQGLKIESLTTIPVPEGIVVDGQINDPPRMAEIIQQGMAESKIKASRVATCIPGRDAIVRVIPVPAELDNKELREMVLNHEAALYLPYPREEADVDYQKLGYFVDEDGIEKVQVLLVATRKEITDTYINTFAEAGLKVDVLEINSFALIRTIRDQLRLFGPQEAAVLVDIEFDSTEIAIIINGVPQFSRTVPIGTYQLQAALSRAMNLPTSRDMDMLMGMTIPTNSMDVGRTGTTGVNPGMGPMLKILGELSDELRRSIDFYINQSEGLEVAQILLAGTGGGLQQLDEFFTQRLGFPTTQIDPIRDLSLQVEAEKYPPVQRPGLGIILGLAMREG | not soluble |
| MVQHLSAQEIIQYISDAKKSTPLKVYVNGHFENVTFPESFKVFGSEHSKVIFCEANEWKQFYQQNHSLITELEIEMDRRNSAIPLKDL | not soluble |
| MVQWSPFVMSFKKKYPWIQLAGHAGSFKAAANGRILKKHCESEQRCLDRLMADVLRPFVPAYHGDVVKDGERYNQMDDLLADFDSPCVMDCKMGVRTYLEEELTKARKKPSLRKDMYQKMVEVDPEAPTEEEKAQRAVTKPRYMQWRETISSTATLGFRIEGIKKEDGSVNRDFKKTKTREQVTEAFREFTKGNQNILIAYRDRLKAIRATLEISPFFKCHEVIGSSLLFIHDKKEQAKVWMIDFGKTTPLPEGQTLQHDVPWQEGNREDGYLSGLDNLIDILTEMSQG | soluble |
| MVRANGAVSLRELARVVQTSEVTVRRDVRALEAEGLLDRRHGGAVLPGGFTRESGFPQKSHLATAEKTAIADLAAGLVEEGEAIVVGAGTTTQELARRLARVPGLTVVTNSLLVAQALAHANRVEVVMTGGTLRGSNYALVGSGAEQSLQGLRVSKAFLSGSGLTAERGLSTSNMLSASVDRALVQAAAEVVVLADHSKLGTDTMFQTVPTDVITRLVTDESPGHDDRAATELQALADQGVQIAVAGASGGGTANGTGASGAPGGDSVGRQQRRDVPLPGPRRQVPGAAGAGLRSATALGEQGGGAERARVADMRRRLEHHHHHH | not soluble |
| MVREAKNLRARTKKISLHICRKHAPQSEDFRCVFLRQQVIDRDIEAMAKPYDFYIVWKLSYNHVFTIHPRHTILELPPVYPDTALVPFFIMRFSFFDHMISCEYIFHRKLFVCLHRKNKQKQKSNM | not soluble |
| MVRIYTLTLAPSLDSATITPQIYPEGKLRCTAPVFEPGGGGINVARAIAHLGGSATAIFPAGGATGEHLVSLLADENVPVATVEAKDWTRQNLHVHVEASGEQYRFVMPGAALNEDEFRQLEEQVLEIESGAILVISGSLPPGVKLEKLTQLISAAQKQGIRCIVDSSGEALSAALAIGNIELVKPNQKELSALVNRELTQPDDVRKAAQEIVNSGKAKRVVVSLGPQGALGVDSENCIQVVPPPVKSQSTVGAGDSMVGAMTLKLAENASLEEMVRFGVAAGSAATLNQGTRLCSHDDTQKIYAYLSR | soluble |
| MVRKALWKECLRIGGKVPLLNGEKLREIFRSGRGTGRFAKALGIEYGVDTSFNMLKVAKERGIKVALAKGENLPFKSETFDSVFLVVTICFVENPKQVLKEAHRVLKRDGKLYLGLILKESKWAKFYEEKAKNGHPFYKHARFYSFFELKEMVKDIFSFEEMKSTLLEEPQDSEPVKNKEIKPGFYENSGFTCIRLSKKLLEHHHHHH | not soluble |
